Earlier results, collected in article PMC6310256.

Molecular target: complement C5 (human, recombinant) (UniProt P01031)
Assay: SPR (Biacore), as reported in ref 17
Conditions: cited from earlier work

Chain of UniProt P01031 (P01031 whole entry): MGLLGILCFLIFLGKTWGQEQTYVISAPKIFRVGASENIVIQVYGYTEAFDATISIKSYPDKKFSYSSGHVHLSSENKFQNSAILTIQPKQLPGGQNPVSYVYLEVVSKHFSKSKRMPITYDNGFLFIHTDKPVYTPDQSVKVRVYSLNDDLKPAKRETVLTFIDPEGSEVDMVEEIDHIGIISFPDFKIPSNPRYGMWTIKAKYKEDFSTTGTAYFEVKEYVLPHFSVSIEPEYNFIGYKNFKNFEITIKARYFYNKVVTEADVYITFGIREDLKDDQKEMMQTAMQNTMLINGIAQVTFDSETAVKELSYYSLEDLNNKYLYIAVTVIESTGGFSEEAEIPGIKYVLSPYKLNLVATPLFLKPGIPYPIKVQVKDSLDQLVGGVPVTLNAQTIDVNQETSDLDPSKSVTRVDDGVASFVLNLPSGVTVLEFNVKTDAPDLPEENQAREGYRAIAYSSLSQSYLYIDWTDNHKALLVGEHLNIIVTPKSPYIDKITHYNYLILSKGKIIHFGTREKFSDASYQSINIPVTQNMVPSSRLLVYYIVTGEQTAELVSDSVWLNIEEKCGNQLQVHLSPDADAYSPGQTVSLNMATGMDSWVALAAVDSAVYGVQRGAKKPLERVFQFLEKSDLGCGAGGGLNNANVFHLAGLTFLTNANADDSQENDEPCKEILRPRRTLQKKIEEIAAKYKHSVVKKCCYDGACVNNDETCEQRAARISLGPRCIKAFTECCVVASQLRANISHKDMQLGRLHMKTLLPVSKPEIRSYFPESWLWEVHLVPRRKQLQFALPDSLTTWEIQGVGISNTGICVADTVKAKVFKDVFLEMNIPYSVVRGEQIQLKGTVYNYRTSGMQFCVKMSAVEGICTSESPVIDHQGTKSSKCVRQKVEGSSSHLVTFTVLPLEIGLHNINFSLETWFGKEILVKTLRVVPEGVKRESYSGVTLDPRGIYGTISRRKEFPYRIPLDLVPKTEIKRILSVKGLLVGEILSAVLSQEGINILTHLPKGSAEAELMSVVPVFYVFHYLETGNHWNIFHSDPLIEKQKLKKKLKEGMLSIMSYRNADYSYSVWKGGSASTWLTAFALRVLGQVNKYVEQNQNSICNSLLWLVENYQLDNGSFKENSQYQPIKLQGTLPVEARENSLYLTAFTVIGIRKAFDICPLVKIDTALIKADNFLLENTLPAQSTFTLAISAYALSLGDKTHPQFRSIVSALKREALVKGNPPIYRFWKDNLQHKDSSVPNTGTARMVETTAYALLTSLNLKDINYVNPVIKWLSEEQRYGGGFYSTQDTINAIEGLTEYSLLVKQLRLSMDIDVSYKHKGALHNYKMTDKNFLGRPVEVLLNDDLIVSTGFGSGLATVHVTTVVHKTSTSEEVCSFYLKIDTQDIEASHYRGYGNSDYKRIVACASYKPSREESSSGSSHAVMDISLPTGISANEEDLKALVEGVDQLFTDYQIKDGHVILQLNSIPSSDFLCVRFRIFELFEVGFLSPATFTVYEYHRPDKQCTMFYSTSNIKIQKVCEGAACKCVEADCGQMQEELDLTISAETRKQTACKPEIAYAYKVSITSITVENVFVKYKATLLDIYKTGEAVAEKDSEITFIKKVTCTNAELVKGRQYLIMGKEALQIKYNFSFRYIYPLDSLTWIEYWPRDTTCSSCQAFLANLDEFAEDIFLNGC

Substance: SKY59 (crovalimab, RO7112689) Includes am1-am6 and pm1-pm3 (pm3 is light chain F92K, Kabat), plus charge, deimmunization and Fc mutations that are not listed.
- kd (pH 5.8): 0.0145 s⁻¹
- KD (pH 7.4): 0.152 nM
- ka (pH 7.4): 1.44e+06 M⁻¹ s⁻¹
